For 6 sequences, protein production results are on record in a protein production outcome set (Wang et al. 2014).

The nature of this data set: label from the status in PepcDB records.
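Note: failed if final PepcDB status was selected cloned or expressed and not failed if soluble or beyond.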

As for “MEPNIYQLALAALFGASFVAVSGFFMHFKALNLVLERGKERKENPDGDEPQNPTLVRRRSQVRRKVNDQYGRSPASLPDATPFTDGGGGGGGDTGRSNGHVYVDEIPPGLPRLHTPSEGRASVHGASSIRKTGSFVRPISPKSPVASASAFESVEESDDDDNLTNSEGLDASYLQANGDNEMPADANEEQISMAASSMIRSHSVSGDLHGVQPDPIAADILRKEPEQETFVRLNVPLEVPTSDEVEAYKCLQECLELRKRYVFQETVAPWEKEVISDPSTPKPNTEPFAHYPQGKSDHCFEMQDGVVHVFANKDAKEDLFPVADATAFFTDLHHVLKVIAAGNIRTLCHRRLVLLEQKFNLHLMLNADKEFLAQKSAPHRDFYNVRKVDTHVHHSACMNQKHLLRFIKSKLRKEPDEVVIFRDGTYLTLREVFESLDLTGYDLNVDLLDVHADKSTFHRFDKFNLKYNPCGQSRLREIFLKQDNLIQGRFLGEITKQVFSDLEASKYQMAEYRISIYGRKMSEWDQLASWIVNNDLYSENVVWLIQLPRLYNIYKDMGIVTSFQNILDNIFIPLFEATVDPDSHPQLHVFLKQVVGFDLVDDESKPERRPTKHMPTPAQWTNAFNPAFSYYVYYCYANLYVLNKLRESKGMTTITLRPHSGEAGDIDHLAATFLTCHSIAHGINLRKSPVLQYLYYLAQIGLAMSPLSNNSLFLDYHRNPFPVFFLRGLNVSLSTDDPLQIHLTKEPLVEEYSIAASVWKLSACDLCEIARNSVYQSGFSHALKSHWIGKDYYKRGPDGNDIHKTNVPHIRVEFRDTIWKEEMQQVYLGKAVISDEVVP”, the protein production entry is listed as “not failed”. Under “MEPTAPAPTPAATRNTESTAKIVYVLYLLSFAAGITTLIGVVMAYVNEGDAPEGLRTHYRFQIRTFWIGLLYAVVGGLLTIVGIGALILLFVAVWLVIRCVKGLKWLDQRQPVPNPATWLW” stands “failed”. For the sequence “MEPTDVSTGTGKVLLLDTKRYGYWKVCMTQIIRGQEDGFKITKPKANWTAEEKLQSKFNARAMKAIFNGVDEDEFKLIQGCKSAKQAWDTLQKSHEGTSSVKRTRLDHIATQFEYLKMEPDEKIVKFSSKISALANEAEVMGKTYKDQKLVKKLLRCLPPKFAAHKAVMRVAGNTDKISFVDLVGMLKLEEMKADQDKVKPSKNIAFNADQGSEQFQEIKDGMALLARNFGKALKRVEIDGERSRGRFSRSENDDLRKKKEIQCYECGGFGHIKPECPITKRKEMKCLKCKGVGHTKFECPNKSKLKEKSLISFSDSESDDEGEELLNFVAFMASSDSSKFMSDTDSDCDEELNPKDKYRVLYDSWVQLSKDKLKLVKEKLTLEAKLANVSTEDKQKLSGITVDGNSQDYYQKKLDCLQKECHRERDRTKLLERELNDKYKQIRMLNKGLESLDKILAMGRTDSQQRGLGYQGYTGKIKKEEGRVINFVSGGSTSETVVRQSYIEPKKQVKSHVEIKRESVVRTRMVGVICCDHCGKRFHMREQCYKFKEKVRTLWNLAKCFIEPSRFCTVWIKKKDLYGDMEAERYNHKLERMYEEEEMHYASCCNQVNKEMQDEARKKDDSFGST”, the protein production result is “failed”. Under “MEQADVTSLIPILITLFLALTTRNVVVGLFAGVVSGVAMLEGTFVEKGPLDSFSALMKSYLLPQLTDSYNAGVILLLVFIGGFVALMEKSGGGVAFAKKVTQWVASKCQAQLSAWFGGVVIFFSDLGTPLIVGPVFRPLFDKLKVSRQKLAFIIDSTSSPVAILIPFIGWGVYIMGLIQKEFTALNVSMSDWDAFIGAIPYQFYAFLAIAIVPIVSFFKLDFGPMAKAEQLAEQGSDFGKEQESMNVFTHKNAKSSFVWAPLLVMLVVLCTILVPHGFPFQKVAGSTFRAALSSAYFFAAFTLIALMAFYGVRKLSDGIQVYLKGMSNMMSVAVILVLAWALSSVGKELGAAAYIAEQAQAGFPYWLLPAVAFLLAGIISFATGSSWGTFAIMMPLVIPTAVAIDAPLLVCIGAVLSGGLFGDHCSPISETTILSSTGAGCEQYEHFRTQLPYAVLNGVIALVCFLLAGVAASPVIVLAAIVAQFAIYYVLSKQKPTEQLESVSAE” stands “failed”.

Consider “MEQEEPCEAKETASSSIEPKTPNPNVPDSIPAIDSDSSLSEEEIVTEKDRGIVTLSPLCKQRIDSASISDCVLVSDDEIIESLYQNLLRVILSLQQIQSVAVVPEIWCFDGCKTPPPSSRNLDSNMVSDTCPGAPMKLTKISRNIDSGLRRKLF”, for which the protein production entry is reported as “failed”. Under “MEQFLDNIKDLEVTTVVRAQEALDKKETATFFIGRKTCPYCRKFAGTLSGVVAETKAHIYFINSEEPSQLNDLQAFRSRYGIPTVPGFVHITDGQINVRCDSSMSAQEIKDFAGL” stands “not failed”.
